{
  "source": "patent US20260242474A1",
  "about": "(PERSONGEN BIOTHERAPEUTICS SUZHOU, published 2026)",
  "key": {"[1]": {"molecular_target": "T1, PD1-Fc recombinant protein (human, UniProt Q15116 25-167)", "T1 construct": "range 25-167; also called PD1-Fc antigen; PD1-Fc protein; not shown: human IgG1 Fc tag at the C-terminus", "T1 sequence (Q15116 25-167 limits assumed)": "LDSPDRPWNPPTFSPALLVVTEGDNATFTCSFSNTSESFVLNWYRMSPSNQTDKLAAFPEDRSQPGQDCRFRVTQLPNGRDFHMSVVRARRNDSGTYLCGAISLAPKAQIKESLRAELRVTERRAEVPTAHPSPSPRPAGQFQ", "assay": "SPR, PD1-Fc immobilized on CM5 chip, antibody as mobile phase"}, "[2]": {"molecular_target": "T1, PD1-Fc recombinant protein", "assay": "phage ELISA, wells coated with PD1-Fc (Fc and blocked wells as controls)"}},
  "data": [
    {"binder": "2-F3-(G4S)3-2-B1 bivalent PD1 antibody (with human IgG1 Fc) (Fc fusion, Two VHH joined by (G4S)3, subcloned in tandem with human IgG1 Fc; purified on Protein A; not shown: human IgG1 Fc, in tandem C-terminal (vector pcDNA3.4-hIgG1-Fc2)) QVKLEESGGGLVQPGGSLTVSCVASGFSLDAYTIGWFRQAPGKEREGIICISRGGRITNYAHSVKDRFTISRDGAKNMVYLHMNSLKPEDTGAYYCAAVQRDPFICSGYTQSYDLWGQGTQVTVSSGGGGSGGGGSGGGGSQVQLVESGGGLVQPGGSLTVSCAASGFSLDAYTIGWFRQAPGKEREGIICISRGGRITNYAHSVKDRFTISRDGAKNTVYLHMNSLKPEDTGAYYCAAVQRDPFICSGYTQSYDHWGQGTQVTVSS", "values": [
      {"measurement": "Kd", "setting": "[1]", "result": 0.282, "unit": "nM"},
      {"measurement": "koff", "setting": "[1]", "result": 0.000118, "unit": "s⁻¹"},
      {"measurement": "kon", "setting": "[1]", "result": 418000, "unit": "M⁻¹ s⁻¹"}
    ]},
    {"binder": "2-C10 VHH displayed on phage (clone from cross-panning) (VHH, Tested as a phage monoclone (pComF display vector, M13) in phage ELISA; the phage fusion partner is not described) VHH: QVQLVESGGGLVQPGGSLRLSCAASGFSLDAYTIGWFRQAPGQEREGISCISRSGRITNYARSAKDRFTISRDNAKNTVYLEMKNLRPEDTGAYYCAAVEMDPFLCSGYTQSYDQWGQGTQVTVSS", "values": [
      {"measurement": "binding result", "setting": "[2]", "result": "binds"}
    ]},
    {"binder": "2-C10-(G4S)3-2-B1 bivalent PD1 antibody (with human IgG1 Fc) (Fc fusion, Two VHH joined by (G4S)3, subcloned in tandem with human IgG1 Fc; purified on Protein A; not shown: human IgG1 Fc, in tandem C-terminal (vector pcDNA3.4-hIgG1-Fc2)) QVQLVESGGGLVQPGGSLRLSCAASGFSLDAYTIGWFRQAPGQEREGISCISRSGRITNYARSAKDRFTISRDNAKNTVYLEMKNLRPEDTGAYYCAAVEMDPFLCSGYTQSYDQWGQGTQVTVSSGGGGSGGGGSGGGGSQVQLVESGGGLVQPGGSLTVSCAASGFSLDAYTIGWFRQAPGKEREGIICISRGGRITNYAHSVKDRFTISRDGAKNTVYLHMNSLKPEDTGAYYCAAVQRDPFICSGYTQSYDHWGQGTQVTVSS", "values": [
      {"measurement": "Kd", "setting": "[1]", "result": 0.0211, "unit": "nM"},
      {"measurement": "koff", "setting": "[1]", "result": "3.29e-05", "unit": "s⁻¹"},
      {"measurement": "kon", "setting": "[1]", "result": "1.56e+06", "unit": "M⁻¹ s⁻¹"}
    ]},
    {"binder": "2-C10-(G4S)3-2-F3 bivalent PD1 antibody (with human IgG1 Fc) (Fc fusion, Two VHH joined by (G4S)3, subcloned in tandem with human IgG1 Fc; purified on Protein A; not shown: human IgG1 Fc, in tandem C-terminal (vector pcDNA3.4-hIgG1-Fc2)) QVQLVESGGGLVQPGGSLRLSCAASGFSLDAYTIGWFRQAPGQEREGISCISRSGRITNYARSAKDRFTISRDNAKNTVYLEMKNLRPEDTGAYYCAAVEMDPFLCSGYTQSYDQWGQGTQVTVSSGGGGSGGGGSGGGGSQVKLEESGGGLVQPGGSLTVSCVASGFSLDAYTIGWFRQAPGKEREGIICISRGGRITNYAHSVKDRFTISRDGAKNMVYLHMNSLKPEDTGAYYCAAVQRDPFICSGYTQSYDLWGQGTQVTVSS", "values": [
      {"measurement": "Kd", "setting": "[1]", "result": 0.28, "unit": "nM"},
      {"measurement": "koff", "setting": "[1]", "result": "8.92e-05", "unit": "s⁻¹"},
      {"measurement": "kon", "setting": "[1]", "result": 318000, "unit": "M⁻¹ s⁻¹"}
    ]}
  ]
}
